Measurements taken from publication PMC8113518, “JRAB/MICAL-L2 undergoes liquid–liquid phase separation to form tubular recycling endosomes” (Communications Biology, 2021).

Biological target: T1, His-GFP-JRAB/MICAL-L2 (mouse, UniProt Q3TN34 1-1009)
T1 construct: JRAB/MICAL-L2, mouse; cDNA encoding JRAB/MICAL-L2 subcloned into pcDNAHisMax-GFP; The plasmid encodes the His6-tag followed by GFP, then the protein's cDNA; source: HEK293, transfected, purified (cOmplete resin, Superdex 200)
Experiment: recruitment to liposomes seen by confocal microscopy; purified His-GFP-JRAB/MICAL-L2 and His-mCherry-Rab8ADA (150 nM) mixed with PC:PS (7:3) liposomes in 20 mM HEPES-NaOH pH 7.5, 100 mM KCl, 1 mM DTT
Settings: both partners purified

T1 sequence (Q3TN34 whole entry): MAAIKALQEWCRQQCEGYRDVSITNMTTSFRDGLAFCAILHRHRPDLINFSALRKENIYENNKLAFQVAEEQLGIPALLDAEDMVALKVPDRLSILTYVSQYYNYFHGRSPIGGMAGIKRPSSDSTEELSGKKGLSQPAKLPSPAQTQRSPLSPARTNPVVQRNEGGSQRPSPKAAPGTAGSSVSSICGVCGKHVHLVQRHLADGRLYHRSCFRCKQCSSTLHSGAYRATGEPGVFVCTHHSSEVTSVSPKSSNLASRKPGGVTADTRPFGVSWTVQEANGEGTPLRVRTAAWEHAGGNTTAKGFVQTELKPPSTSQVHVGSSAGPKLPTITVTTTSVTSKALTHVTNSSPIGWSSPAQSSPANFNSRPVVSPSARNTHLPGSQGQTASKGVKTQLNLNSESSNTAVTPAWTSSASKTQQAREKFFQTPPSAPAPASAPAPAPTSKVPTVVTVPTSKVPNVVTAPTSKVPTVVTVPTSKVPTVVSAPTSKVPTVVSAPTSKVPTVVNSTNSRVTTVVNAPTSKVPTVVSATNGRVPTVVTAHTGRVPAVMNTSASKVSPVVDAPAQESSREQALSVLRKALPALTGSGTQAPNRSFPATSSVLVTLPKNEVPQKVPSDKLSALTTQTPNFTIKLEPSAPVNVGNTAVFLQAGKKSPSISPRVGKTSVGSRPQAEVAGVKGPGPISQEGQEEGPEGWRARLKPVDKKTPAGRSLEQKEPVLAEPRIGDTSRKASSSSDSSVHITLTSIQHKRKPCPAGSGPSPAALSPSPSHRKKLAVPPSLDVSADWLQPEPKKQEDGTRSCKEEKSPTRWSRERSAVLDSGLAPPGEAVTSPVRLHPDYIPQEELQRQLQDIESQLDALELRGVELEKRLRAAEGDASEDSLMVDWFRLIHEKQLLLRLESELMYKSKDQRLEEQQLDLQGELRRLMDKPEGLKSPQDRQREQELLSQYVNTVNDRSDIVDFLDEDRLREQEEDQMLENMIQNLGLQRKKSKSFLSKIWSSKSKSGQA

B1: His-mCherry-Rab8ADA (natural protein, mouse, UniProt P55258 1-207, looked up)
chain: MAKTYDYLFKLLLIGDSGVGKTCVLFRFSEDAFNSTFISTIGIDFKIRTIELDGKRIKLQIWDTAGLERFRTITTAYYRGAMGIMLVYDITNEKSFDNIRNWIRNIEEHASADVEKMILGNKCDVNDKRQVSKERGEKLALDYGIKFMETSAKANINVENAFFTLARDIKAKMDKKLEGNSPQGSSHGVKITVEQQKRTSFFRCSLL
notes: Rab8A, mouse, dominant-active mutant Q67L; cDNA subcloned into pcDNAHisMax-mCherry; The plasmid encodes the His6-tag followed by mCherry, then the protein's cDNA; Purified from the membrane (pellet) fraction; source: HEK293, transfected, purified from the CHAPS-extracted pellet fraction (Talon resin)
Question: Does B1 bind?
Answer: binds
